Measured values published in patent publication EP4669352A1.
Read-outs that look alike come from different tables or passages of the source.

B1: MV49 (antibody, V domains shown)
VH: QVQLQESGGGLVQPGGSLRLSCAASGFTFSNSWMNWVRQAPGKGPEWVARIKRKADGETADYAASVKGRFAVSRDDSKNTLYLQINSLKSEDTAVYYCTTVPPLYDLFYRGAYYFDSWGQGVLITVSS
VL: QPVLTQPPSVSGSPGQSVTISCTGTSSDIGGYKYVSWYQQHPGTAPKLMIYEVNKRPSGVSDRFSGSKSGNTASLTISGLQAEDEADYYCSAYSTSRTYIFGPGTRVTVL
B2: MV33 (antibody, V domains shown)
VH: EAQLVESGGGLVHPGGSLRLSCEVSGFTFSNSWMNWVRQAPGKGLECVARIIRNADGETADYAASVRGRFTISRDDPENTLYLRMKSLKTEDTAVYYCTTVPPLSHLFFHETYYFDYWGQGVLVTVSS
VL: QAARTQSPSMSASPGQSVTISCTGTRNDIGGYNYVSWYQQYPGKAPKLMIYDVSKRPSGVSDRFSGSKSGNTASLTISGLQAEDEANYYCSSYAGSNTYVFGSGTKLTIL

Assays:
[1] = target: D8 protein (vaccinia virus)
[2] = target: D8 protein (vaccinia virus); remark: listed apart in the source
[3] = target: D8 protein (vaccinia virus); assay: BLI (Octet)

Binder	Kd [1] [nM]	koff [2] [s⁻¹]	Kd [3] [nM]
B1	0.011		
B2		< 1e-07	< 0.001
